Data: patent US20250051460A1

Biological target: human VEGF-A (human) (UniProt P15692)
Test: cell-based or functional assay

Sequence of human VEGF-A (human) (P15692 other isoform, or with tags, fused parts or gaps limits assumed): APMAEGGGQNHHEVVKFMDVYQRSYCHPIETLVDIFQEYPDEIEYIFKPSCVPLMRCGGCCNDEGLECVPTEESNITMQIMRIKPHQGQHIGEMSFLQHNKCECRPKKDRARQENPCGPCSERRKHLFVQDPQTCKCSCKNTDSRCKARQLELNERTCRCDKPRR
Sequence of EYLEA (aflibercept) (Fc fusion) (chain): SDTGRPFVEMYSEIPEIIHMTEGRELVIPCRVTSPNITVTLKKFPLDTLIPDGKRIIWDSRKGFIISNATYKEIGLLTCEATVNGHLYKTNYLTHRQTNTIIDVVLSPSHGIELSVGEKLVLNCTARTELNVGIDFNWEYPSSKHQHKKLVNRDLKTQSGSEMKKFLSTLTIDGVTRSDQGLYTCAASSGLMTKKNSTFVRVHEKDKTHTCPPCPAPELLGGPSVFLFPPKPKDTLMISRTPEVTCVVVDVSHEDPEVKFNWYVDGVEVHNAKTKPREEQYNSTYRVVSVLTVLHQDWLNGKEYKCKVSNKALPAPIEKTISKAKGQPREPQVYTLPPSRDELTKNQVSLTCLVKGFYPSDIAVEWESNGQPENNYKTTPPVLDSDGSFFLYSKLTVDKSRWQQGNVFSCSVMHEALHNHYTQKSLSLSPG

- ERK1/2 phosphorylation: Bottom plateau (AlphaLISA counts) (AlphaLISA counts): 21700
- ERK1/2 phosphorylation: Top plateau (AlphaLISA counts) (AlphaLISA counts): 109000
- HRMEC proliferation, delta area under the curve vs. basal: Top plateau (arbitrary units) (arbitrary units): 129
- HRMEC proliferation: Bottom plateau (arbitrary units) (arbitrary units): 13.3
- HRMEC proliferation: IC50 (pM): 171 pM
- HRMEC proliferation: LogIC50: -9.77
- IC50 (p38 MAPK phosphorylation): 0.74 nM
- Src phosphorylation (Y419): Bottom plateau (AlphaLISA counts) (AlphaLISA counts): 2210
- Src phosphorylation (Y419): IC50: 0.933 nM
- Src phosphorylation (Y419): LogIC50: -9.37
- Src phosphorylation (Y419): Top plateau (AlphaLISA counts) (AlphaLISA counts): 3420
- inhibition of VEGF-induced HRMEC proliferation: 16 nM
- p38-MAPK phosphorylation (T180/Y182): Bottom plateau (AlphaLISA counts) (AlphaLISA counts): 8890
- p38-MAPK phosphorylation (T180/Y182): IC50: 0.748 nM
- p38-MAPK phosphorylation (T180/Y182): LogIC50: -9.13
- p38-MAPK phosphorylation (T180/Y182): Top plateau (AlphaLISA counts) (AlphaLISA counts): 23100
Substance: EYLEA (aflibercept) (Fc fusion)
